Test results published in patent US20160208233A1 (Harvard, published 2016).
Non-standard residues stand in square brackets, D forms with d. No end group written: not given here. *: point of attachment. Dnp = O=[N+]([O-])c1ccc(*)c([N+](=O)[O-])c1; 2Abz = Nc1ccccc1C(=O)O

How the values were obtained:
Abz-LPETGK(Dnp)-CONH2 = target: T1, Abz-LPETGK(Dnp)-CONH2
T1 chain: LPETGK

Abz-LAETGK(Dnp)-CONH2 [1] = target: T2, Abz-LAETGK(Dnp)-CONH2
T2 chain: LAETGK

Abz-LAETGK(Dnp)-CONH2 [2] = target: T3, Abz-LAETGK(Dnp)-CONH2 (N-terminus assumed; SMILES CC(C)C[C@H](NC(=O)c1ccccc1N)C(=O)N[C@@H](C)C(=O)N[C@@H](CCC(=O)O)C(=O)N[C@H](C(=O)NCC(=O)N[C@@H](CCCCNc1ccc([N+](=O)[O-])cc1[N+](=O)[O-])C(N)=O)[C@@H](C)O); experiment: cell-based or functional assay
T3 peptide: [2Abz]LAETGK(Dnp)-NH2

Abz-LPESGK(Dnp)-CONH2 [3] = target: T4, Abz-LPESGK(Dnp)-CONH2
T4 chain: LPESGK

[4] = target: T5, human fetuin A, endogenous in human plasma, P02765
T5 chain: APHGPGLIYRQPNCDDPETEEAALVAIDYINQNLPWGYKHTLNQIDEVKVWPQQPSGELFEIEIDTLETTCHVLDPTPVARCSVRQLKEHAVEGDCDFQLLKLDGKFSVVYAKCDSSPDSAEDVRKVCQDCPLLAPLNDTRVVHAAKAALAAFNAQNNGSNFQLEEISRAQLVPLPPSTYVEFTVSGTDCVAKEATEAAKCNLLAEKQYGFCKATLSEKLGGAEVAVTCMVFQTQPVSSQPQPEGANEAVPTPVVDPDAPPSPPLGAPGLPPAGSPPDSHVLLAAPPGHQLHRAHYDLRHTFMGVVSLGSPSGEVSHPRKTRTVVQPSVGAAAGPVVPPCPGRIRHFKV

Abz-LSETGK(Dnp)-CONH2 = target: T6, Abz-LSETGK(Dnp)-CONH2
T6 chain: LSETGK

Gly-Gly-Gly-COOH = target: T7, Gly-Gly-Gly-COOH
T7 chain: GGG

Abz-LPECGK(Dnp)-CONH2 = target: T8, Abz-LPECGK(Dnp)-CONH2
T8 chain: LPECGK

Abz-LPEAGK(Dnp)-CONH2 = target: T9, Abz-LPEAGK(Dnp)-CONH2
T9 chain: LPEAGK

Abz-LPESGK(Dnp)-CONH2 [5] = target: T10, Abz-LPESGK(Dnp)-CONH2 (N-terminus assumed; SMILES CC(C)C[C@H](NC(=O)c1ccccc1N)C(=O)N1CCC[C@H]1C(=O)N[C@@H](CCC(=O)O)C(=O)N[C@@H](CO)C(=O)NCC(=O)N[C@@H](CCCCNc1ccc([N+](=O)[O-])cc1[N+](=O)[O-])C(N)=O); experiment: cell-based or functional assay
T10 peptide: [2Abz]LPESGK(Dnp)-NH2

[6] = target: T11, eSrtA displayed on ICY200 yeast as a C-terminal Aga2p fusion (Staphylococcus aureus, UniProt Q2FV99 60-206); experiment: yeast-displayed eSrtA, 10 µM Btn-LAETGG against 100 nM to 1 mM LPETGG, cell biotinylation by flow cytometry
T11 construct: the whole entry is named here; also called Yeast displaying eSrtA; S. cerevisiae displaying eSrtA; not shown: Aga2p, yeast display anchor
T11 chain: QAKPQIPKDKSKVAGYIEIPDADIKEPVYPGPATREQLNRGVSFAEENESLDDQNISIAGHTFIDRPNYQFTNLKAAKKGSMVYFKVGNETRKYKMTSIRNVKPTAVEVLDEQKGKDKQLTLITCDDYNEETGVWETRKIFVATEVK

B1: eSrtA(2A-3.5) (enzyme)
chain: QAKPQIPKDKSKVAGYIEIPDADIKEPVYPGPATREQLNRGVSFAEENESLDDQNISIAGHTFIDRPNYQFTNLKAAKKGSMVYFKVGNETRKYKMTSIRNVRPTAVEILDEQKGKDKQLTLFTCDDYNEETGVWETRKIFVATEVK
Abz-LPETGK(Dnp)-CONH2
  Avg KM: 3750 µM
  Avg kcat/KM: 406
  Km, LxExG: 4110 µM
  Specificity (relative catalytic efficiency, fold), LPETG over LAETG: 2.25 fold
  kcat/Km (Hz/M): 386 Hz/M
Abz-LAETGK(Dnp)-CONH2 [1]
  Avg KM: 6370 µM
  Avg kcat/KM: 180
  Km, LxExG: 7160 µM
  kcat/Km (Hz/M): 175 Hz/M
Abz-LAETGK(Dnp)-CONH2 [2]
  specificity (relative cat. Efficiency, fold), by the kcat/Km cells LPETG over LAETG: 2.21 fold

B2: evolved sortase A (eSrtA) (enzyme)
chain: QAKPQIPKDKSKVAGYIEIPDADIKEPVYPGPATREQLNRGVSFAEENESLDDQNISIAGHTFIDRPNYQFTNLKAAKKGSMVYFKVGNETRKYKMTSIRNVKPTAVEVLDEQKGKDKQLTLITCDDYNEETGVWETRKIFVATEVK
Abz-LPESGK(Dnp)-CONH2 [3]
  Km: 318 µM
  Km, LxExG: 672 µM
  Rel. Activity (fold below the enzyme's best substrate, LPETG): 4.9 fold
  kcat/Km: 4650 M⁻¹ s⁻¹
  kcat/Km (Hz/M): 2650 Hz/M
Abz-LPETGK(Dnp)-CONH2
  Km: 230 µM
  Km, LxExG: 208 µM
  kcat/Km: 23000 M⁻¹ s⁻¹
  kcat/Km (Hz/M): 27100 Hz/M
  specificity (relative cat. Efficiency, fold), LPETG over LAETG: 123 fold
[4]
  conjugation efficiency in human plasma, with supplemental calcium (densitometry): 0.6% by eSrtA in the presence supplemental calcium
  fetuin A conjugation efficiency with 10 mM added CaCl2, against eSrtA(4S-9): only modest fetuin A conjugation efficiencies (90-fold lower than that of eSrtA(4S-9)) in the presence of 10 mM added CaCl2
  processing of fetuin A in human plasma without supplemental calcium: eSrtA showed no processing of fetuin A without supplemental calcium
Abz-LAETGK(Dnp)-CONH2 [1]
  Km: 6070 µM
  Km, LxExG: 6160 µM
  Rel. Activity (fold below the enzyme's best substrate, LPETG): 103 fold
  kcat/Km: 223 M⁻¹ s⁻¹
  kcat/Km (Hz/M): 221 Hz/M
Abz-LSETGK(Dnp)-CONH2
  Km: 533 µM
  kcat/Km: 192 M⁻¹ s⁻¹
Gly-Gly-Gly-COOH
  Km, GGG (uM); with LPETG peptide: 2990 µM
  Km,GGG (µM); listed substrate LAETG: 807 µM
  Km,GGG (µM); listed substrate LPEAG: 48400 µM
  Km,GGG (µM); listed substrate LPECG: 57000 µM
  Km,GGG (µM); listed substrate LPESG: 22000 µM
  Km,GGG (µM); listed substrate LPETG: 1620 µM
  Km,GGG (µM); listed substrate LSETG: 337 µM
Abz-LPECGK(Dnp)-CONH2
  Km: 72.5 µM
  kcat/Km: 48800 M⁻¹ s⁻¹
Abz-LPEAGK(Dnp)-CONH2
  Km: 83.4 µM
  kcat/Km: 8900 M⁻¹ s⁻¹
Abz-LPESGK(Dnp)-CONH2 [5]
  specificity (relative cat. Efficiency, fold), by the kcat/Km cells LPETG over LPESG: 10.2 fold

## LPETGG [non-biotinylated LPETGG peptide]
[6]
  Ki: < 100 µM
